The source of these data is patent US20150231203A1 (UTI LIMITED PARTNERSHIP, published 2015).

First the molecules themselves.
B3: USP5 (mouse, endogenous, from brain, DRG or dorsal horn lysate) (enzyme, UniProt P56399 2-858, looked up)
chain: AELSEEALLSVLPTIRVPKAGDRVHKDECAFSFDTPESEGGLYICMNTFLGFGKQYVERHFNKTGQRVYLHLRRTRRPKEEDTSAGTGDPPRKKPTRLAIGVEGGFDLTEDKFEFDEDVKIVILPDYLEIARDGLGGLPDIVRDRVTSAVEALLSADSASRKQEVQAWDGEVRQVSKHAFNLKQLDNPARIPPCGWKCSKCDMRENLWLNLTDGSILCGRRYFDGSGGNNHAVEHYRETGYPLAVKLGTITPDGADVYSYDEDDMVLDPSLAEHLSHFGIDMLKMQKTDKTMTELEIDMNQRIGEWELIQESGVPLKPLFGPGYTGIRNLGNSCYLNSVVQVLFSIPDFQRKYVDKLEKIFQNAPTDPTQDFSTQVAKLGHGLLSGEYSKPALESGDGEQVPEQKEVQDGIAPRMFKALIGKGHPEFSTNRQQDAQEFFLHLINMVERNCRSSENPNEVFRFLVEEKIKCLATEKVKYTQRVDYIMQLPVPMDAALNKEELLEYEEKKRQAEEEKVPLPELVRAQVPFSSCLEAYGAPEQVDDFWSTALQAKSVAVKTTRFASFPDYLVIQIKKFTFGLDWVPKKLDVSIEMPEELDISQLRGTGLQPGEEELPDIAPPLVTPDEPKGSLGFYGNEDEDSFCSPHFSSPTSPMLDESVIIQLVEMGFPMDACRKAVYYTGNSGAEAAMNWVMSHMDDPDFANPLILPGSSGPGSTSAAADPPPEDCVTTIVSMGFSRDQALKALRATNNSLERAVDWIFSHIDDLDAEAAMDISEGRSAAESISESVPVGPKVRDGPGKYQLFAFISHMGTSTMCGHYVCHIKKEGRWVIYNDQKVCASEKPPKDLGYIYFYQRVVS

Assay [1] has as its target T1, recombinant human USP5 long isoform (human, UniProt P45974 1-858).
T1 construct: Purified recombinant protein bought from EnzoLifeSciences; also called hUSP5 long; USP5 long isoform (858 amino acids)
T1 sequence: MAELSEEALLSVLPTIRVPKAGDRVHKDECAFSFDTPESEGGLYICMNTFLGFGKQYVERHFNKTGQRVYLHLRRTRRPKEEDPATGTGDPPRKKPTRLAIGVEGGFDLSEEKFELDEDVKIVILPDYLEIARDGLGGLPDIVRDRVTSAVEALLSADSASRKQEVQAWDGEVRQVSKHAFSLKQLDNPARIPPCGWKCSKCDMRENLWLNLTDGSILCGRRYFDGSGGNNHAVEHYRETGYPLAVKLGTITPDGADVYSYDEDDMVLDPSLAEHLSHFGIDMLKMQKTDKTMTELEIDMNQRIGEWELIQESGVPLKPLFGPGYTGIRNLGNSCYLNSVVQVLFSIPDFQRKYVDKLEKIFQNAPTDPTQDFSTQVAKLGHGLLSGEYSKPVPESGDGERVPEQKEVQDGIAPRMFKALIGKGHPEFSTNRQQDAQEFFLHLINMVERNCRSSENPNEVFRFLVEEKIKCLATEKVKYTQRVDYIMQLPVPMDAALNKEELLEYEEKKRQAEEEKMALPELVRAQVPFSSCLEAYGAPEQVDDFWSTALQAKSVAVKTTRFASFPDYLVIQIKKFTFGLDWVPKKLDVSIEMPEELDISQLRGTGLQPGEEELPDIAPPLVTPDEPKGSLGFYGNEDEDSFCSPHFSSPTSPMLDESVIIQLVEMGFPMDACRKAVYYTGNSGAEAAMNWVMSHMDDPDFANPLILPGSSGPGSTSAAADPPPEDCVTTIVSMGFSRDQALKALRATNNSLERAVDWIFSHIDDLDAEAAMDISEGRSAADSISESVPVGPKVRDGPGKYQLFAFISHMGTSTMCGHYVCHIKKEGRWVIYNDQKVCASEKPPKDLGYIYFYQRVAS
As to the kind of experiment: in vitro binding assay of purified recombinant USP5 to biotinylated peptide, western blot. For orientation: In western blotting, separated proteins are transferred to a membrane and probed.

The target of assay [2] is T2, recombinant human USP5 short isoform (human, UniProt P45974-2 1-835).
T2 construct: Purified recombinant protein bought from EnzoLifeSciences; also called hUSP5 short; USP5 short isoform (835 amino acids)
T2 sequence (looked up): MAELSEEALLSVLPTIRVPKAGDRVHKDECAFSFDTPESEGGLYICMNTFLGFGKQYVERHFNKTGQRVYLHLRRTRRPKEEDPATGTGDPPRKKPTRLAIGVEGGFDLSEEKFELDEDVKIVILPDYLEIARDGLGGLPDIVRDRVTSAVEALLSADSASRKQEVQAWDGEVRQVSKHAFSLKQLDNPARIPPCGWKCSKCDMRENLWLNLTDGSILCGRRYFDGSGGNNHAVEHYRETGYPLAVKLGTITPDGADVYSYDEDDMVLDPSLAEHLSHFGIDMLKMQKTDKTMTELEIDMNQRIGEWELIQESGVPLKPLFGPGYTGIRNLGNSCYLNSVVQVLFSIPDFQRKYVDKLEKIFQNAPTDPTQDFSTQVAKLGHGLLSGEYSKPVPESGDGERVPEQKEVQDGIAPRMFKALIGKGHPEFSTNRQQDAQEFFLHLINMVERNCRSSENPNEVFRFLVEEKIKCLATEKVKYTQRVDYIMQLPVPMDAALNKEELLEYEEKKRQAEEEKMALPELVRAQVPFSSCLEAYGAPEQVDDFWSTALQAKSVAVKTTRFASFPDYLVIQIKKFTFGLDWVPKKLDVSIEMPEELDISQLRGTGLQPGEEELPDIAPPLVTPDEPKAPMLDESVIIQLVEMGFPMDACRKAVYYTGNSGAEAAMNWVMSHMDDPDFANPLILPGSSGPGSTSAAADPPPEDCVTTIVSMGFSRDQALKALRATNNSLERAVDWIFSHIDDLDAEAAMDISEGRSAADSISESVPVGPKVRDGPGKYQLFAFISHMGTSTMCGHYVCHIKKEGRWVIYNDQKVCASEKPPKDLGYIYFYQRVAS
The assay is described as above.

Assay [3] has as its target B3. The assay can be described thus: affinity precipitation from mouse brain lysate with biotinylated peptide, western blot for USP5.
Assay [4] has as its target T3, WWP1 (mouse, endogenous, from DRG lysate) (mouse, UniProt Q8BZZ3 1-918).
T3 construct: also called HECT E3 ligase WWP1
As to the kind of experiment: affinity precipitation from mouse DRG lysate with biotinylated peptide, western blot for WWP1.

Assay [5] concerns the target Cav3.2 channel (mouse, endogenous full-length channel from DRG, brain or dorsal horn) (mouse, UniProt O88427 1-2365, limits assumed). The assay can be described thus: cell-based or functional assay.
Assay [6] concerns the target B3. The assay can be described thus: affinity precipitation from mouse brain lysate with biotinylated Tat peptide (25 µg), western blot for USP5.
For assay [7], the target named is B3. The assay can be described thus: in vitro competition by affinity precipitation from mouse brain lysate; competitor 50 µg against biotin-Tat peptide 25 µg.

No end group written: not given here.

Cav3.2 channel (mouse, endogenous full-length channel from DRG, brain or dorsal horn), sequence (O88427 whole entry): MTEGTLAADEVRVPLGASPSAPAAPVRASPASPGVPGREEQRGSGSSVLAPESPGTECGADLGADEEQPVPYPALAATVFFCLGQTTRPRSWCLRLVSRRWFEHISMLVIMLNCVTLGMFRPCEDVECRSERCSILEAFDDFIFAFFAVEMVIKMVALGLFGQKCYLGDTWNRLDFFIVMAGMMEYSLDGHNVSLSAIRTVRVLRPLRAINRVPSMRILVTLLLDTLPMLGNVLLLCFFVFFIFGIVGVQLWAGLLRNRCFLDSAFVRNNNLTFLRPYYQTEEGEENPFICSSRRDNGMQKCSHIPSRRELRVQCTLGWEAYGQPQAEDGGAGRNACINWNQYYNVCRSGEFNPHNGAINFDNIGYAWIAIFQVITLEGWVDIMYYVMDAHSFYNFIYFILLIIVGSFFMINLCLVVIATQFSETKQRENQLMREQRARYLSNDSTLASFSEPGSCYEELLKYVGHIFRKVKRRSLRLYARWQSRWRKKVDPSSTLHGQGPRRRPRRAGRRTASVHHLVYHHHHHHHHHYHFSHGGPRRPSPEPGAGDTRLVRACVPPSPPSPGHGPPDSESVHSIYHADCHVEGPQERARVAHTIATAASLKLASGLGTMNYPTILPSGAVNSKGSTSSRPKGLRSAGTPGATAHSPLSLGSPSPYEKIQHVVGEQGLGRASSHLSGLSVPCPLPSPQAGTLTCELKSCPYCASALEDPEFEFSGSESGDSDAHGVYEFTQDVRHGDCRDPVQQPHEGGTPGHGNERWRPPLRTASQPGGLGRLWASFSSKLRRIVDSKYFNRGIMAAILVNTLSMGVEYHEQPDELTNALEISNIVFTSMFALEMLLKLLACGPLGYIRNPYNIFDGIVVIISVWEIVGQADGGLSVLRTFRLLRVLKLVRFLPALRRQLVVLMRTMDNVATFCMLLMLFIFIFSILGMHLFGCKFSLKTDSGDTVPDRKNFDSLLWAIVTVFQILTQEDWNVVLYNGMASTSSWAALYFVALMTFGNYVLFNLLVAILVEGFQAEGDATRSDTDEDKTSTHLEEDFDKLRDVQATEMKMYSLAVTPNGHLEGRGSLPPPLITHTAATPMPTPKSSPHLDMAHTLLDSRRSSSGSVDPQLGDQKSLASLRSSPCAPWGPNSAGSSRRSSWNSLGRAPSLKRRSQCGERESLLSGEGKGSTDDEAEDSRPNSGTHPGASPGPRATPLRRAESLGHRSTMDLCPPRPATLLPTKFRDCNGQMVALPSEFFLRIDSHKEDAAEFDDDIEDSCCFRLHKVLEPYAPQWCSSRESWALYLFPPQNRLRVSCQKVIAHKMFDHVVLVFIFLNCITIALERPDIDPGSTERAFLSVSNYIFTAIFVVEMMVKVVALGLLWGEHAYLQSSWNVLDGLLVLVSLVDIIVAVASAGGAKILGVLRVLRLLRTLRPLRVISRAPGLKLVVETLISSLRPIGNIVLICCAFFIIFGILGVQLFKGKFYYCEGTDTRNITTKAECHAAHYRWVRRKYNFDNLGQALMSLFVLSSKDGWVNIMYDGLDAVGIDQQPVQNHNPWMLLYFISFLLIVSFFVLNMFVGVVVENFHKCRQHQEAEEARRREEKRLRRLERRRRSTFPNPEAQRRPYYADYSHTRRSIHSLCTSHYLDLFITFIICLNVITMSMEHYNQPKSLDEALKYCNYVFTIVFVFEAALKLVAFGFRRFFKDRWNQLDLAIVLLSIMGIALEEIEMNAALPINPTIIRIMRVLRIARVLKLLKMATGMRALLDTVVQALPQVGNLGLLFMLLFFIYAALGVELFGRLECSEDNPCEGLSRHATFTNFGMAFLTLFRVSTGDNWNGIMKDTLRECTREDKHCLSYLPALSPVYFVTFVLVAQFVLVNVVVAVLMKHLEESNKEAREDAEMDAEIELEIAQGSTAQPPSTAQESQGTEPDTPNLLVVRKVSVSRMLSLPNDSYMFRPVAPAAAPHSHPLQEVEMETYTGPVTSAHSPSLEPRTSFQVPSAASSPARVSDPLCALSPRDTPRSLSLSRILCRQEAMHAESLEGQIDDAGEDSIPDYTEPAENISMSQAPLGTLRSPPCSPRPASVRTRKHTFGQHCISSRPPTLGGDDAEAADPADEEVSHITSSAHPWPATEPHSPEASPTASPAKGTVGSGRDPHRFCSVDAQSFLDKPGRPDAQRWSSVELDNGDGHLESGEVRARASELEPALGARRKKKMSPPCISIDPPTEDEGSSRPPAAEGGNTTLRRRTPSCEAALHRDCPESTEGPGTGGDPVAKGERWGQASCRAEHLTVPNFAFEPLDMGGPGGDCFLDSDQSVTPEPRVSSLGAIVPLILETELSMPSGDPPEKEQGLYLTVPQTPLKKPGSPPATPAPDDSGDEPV

B1: human biotin-Cav3.2 1860-1884 C-terminus peptide (peptide, UniProt O95180-2 1860-1884, looked up)
peptide: SNKEAREDAELDAEIELEMAQGPGS-biotin
modifications: not fully specified
notes: Control peptide; also called hCav3.21860-1884 (CT); Cav3.2 C-terminus peptide
As for B1, the binding result in assay [1], in assay [2] and in assay [3] was “no binding” throughout.

B2: human biotin-Cav3.2 1569-1586 short III-IV linker peptide (peptide, UniProt O95180-2 1569-1586, looked up)
peptide: EARRREEKRLRRLERRRR
modifications: also: biotin, position not given here
notes: range 1569-1586; Synthetic peptide lacking the PY motif; also called hCav3.21569-1586; 18 amino acid short peptide lacking the PY motif
Take B2: in assay [4], the binding result is given as “binds”.
For the molecule B3, the “channel ubiquitination of Cav3.2 immunoprecipitates from CAD cells transfected with USP5-shRNA against USP15-shRNA” value in assay [5] was roughly 5 fold.

B4: biotin-Tat-3.2 III-IV 1569-1589 linker peptide (peptide)
peptide: YGRKKRRQRRREARRREEKRLRRLERRRRKAQ
modifications: not fully specified (N-terminus); also: biotin, position not given here
notes: also called biotinylated Cav3.21569-1589 III-IV linker peptide; Tat-Cav3.21569-1589 III-IV linker peptide
For B4, the binding result in assay [6] is listed as “binds”.

B5: Tat-Cav3.2 1569-1589 III-IV linker peptide (non-biotinylated) (peptide)
peptide: YGRKKRRQRRREARRREEKRLRRLERRRRKAQ
notes: also called Tat-3.2-III-IV1569-1589 linker; Tat-3.2-III-IV
With B5, in assay [7], the binding result is recorded as “binds”.

B6: human biotin-Cav3.2 1556-1602 III-IV linker peptide (peptide, UniProt O95180-2 1556-1602, looked up)
peptide: ENFHKCRQHQEAEEARRREEKRLRRLERRRRKAQRRPYYADYSPTRR-biotin
modifications: not fully specified
notes: Synthetic peptide containing the PY motif; also called long III-IV linker
Consider B6, for which the binding result in assay [1], in assay [2], in assay [4] and in assay [3] was “binds” throughout.
